This note sets out measurements from US20230212533A1, “PRODUCTS AND METHODS FOR THE TREATMENT OF NICOTINE DEPENDENCE” (THE REGENTS OF THE UNIVERSITY OF MICHIGAN, priority 2020, published 2023).

The target in this experiment is CycN cytochrome c protein (Pseudomonas putida S16) (Pseudomonas putida S16). Description: anaerobic stopped-flow spectrophotometry at 542 nm, 4 °C; NicA2-Flred mixed with excess CycNox; linear fit of first-phase kobs against CycNox concentration, said to report on the bimolecular association of the two proteins.

B1: NicA2 nicotine oxidoreductase (wild-type, Pseudomonas putida S16) (enzyme)
chain: TQKTNRASTVKGGFDYDVVVVGGGFAGATAARECGLQGYRTLLLEARSRLGGRTFTSRFAGQEIEFGGAWVHWLQPHVWAEMQRYGLGVVEDPLTNLDKTLIMYNDGSVESISPDEFGKNIRIAFEKLCHDAWEVFPRPHEPMFTERARELDKSSVLDRIKTLGLSRLQQAQINSYMALYAGETTDKFGLPGVLKLFACGGWNYDAFMDTETHYRIQGGTIGLINAMLTDSGAEVRMSVPVTAVEQVNGGVKIKTDDDEIITAGVVVMTVPLNTYKHIGFTPALSKGKQRFIKEGQLSKGAKLYVHVKQNLGRVFAFADEQQPLNWVQTHDYSDELGTILSITIARKETIDVNDRDAVTREVQKMFPGVEVLGTAAYDWTADPFSLGAWAAYGVGQLSRLKDLQAAEGRILFAGAETSNGWHANIDGAVESGLRAGREVKQLLS
What is called kon is a measure of how fast the partners come together. Higher therefore signals fast association. For the molecule B1, the kon turned out to be 1.3e+06 M⁻¹ s⁻¹.
